Assay results from the supplement of paper PMC10567573.

B1: KIAA1161 (parent)
chain: FMPAMQFSIPPWRYDAEVVAIAQK
B2: SLC2A12 (parent)
chain: CLLGLGSLVLILSLSYTVLIVGRI

Variants of: B1
Test: protein stability index of a GFP-peptide fusion (GPS, HEK-293T) (PSI 1-6); higher = more stable
Details: c terminus: a fixed tail appended
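Note: lentivirally expressed fusions sorted by FACS into six bins by GFP to DsRed ratio, PSI derived from sequencing read proportions per bin multiplied by bin number.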

Variant	protein stability index
FMPAMQPSIPPWRYDAEVVAIAQK [F7P]	2.08
FMPAMQASIPPWRYDAEVVAIAQK [F7A]	1.97
FMPAMQGSIPPWRYDAEVVAIAQK [F7G]	1.61
FMPAMQESIPPWRYDAEVVAIAQK [F7E]	2.34
FMPAMQDSIPPWRYDAEVVAIAQK [F7D]	2.9
FMPAMQNSIPPWRYDAEVVAIAQK [F7N]	2.24
FMPAMQCSIPPWRYDAEVVAIAQK [F7C]	2.61
FMPAMQLSIPPWRYDAEVVAIAQK [F7L]	1.82
FMPAMQMSIPPWRYDAEVVAIAQK [F7M]	1.91
FMPAMQQSIPPWRYDAEVVAIAQK [F7Q]	2.89
FMPAMQHSIPPWRYDAEVVAIAQK [F7H]	2.01
FMPAMQISIPPWRYDAEVVAIAQK [F7I]	2.9
FMPAMQKSIPPWRYDAEVVAIAQK [F7K]	1.7
FMPLMQFSIPPWRYDAEVVAIAQK [A4L]	2.09
FMPRMQFSIPPWRYDAEVVAIAQK [A4R]	2.66
FMPQMQFSIPPWRYDAEVVAIAQK [A4Q]	1.97
FMPKMQFSIPPWRYDAEVVAIAQK [A4K]	1.87
FMPEMQFSIPPWRYDAEVVAIAQK [A4E]	2.34
FMPTMQFSIPPWRYDAEVVAIAQK [A4T]	1.76
FMPDMQFSIPPWRYDAEVVAIAQK [A4D]	3.44
FMPNMQFSIPPWRYDAEVVAIAQK [A4N]	1.56
FMPMMQFSIPPWRYDAEVVAIAQK [A4M]	1.86
FMPCMQFSIPPWRYDAEVVAIAQK [A4C]	1.47
FMPHMQFSIPPWRYDAEVVAIAQK [A4H]	2.68

Variant	protein stability index
FMPGMQFSIPPWRYDAEVVAIAQK [A4G]	2.34
FMPPMQFSIPPWRYDAEVVAIAQK [A4P]	2.29
FMPAEQFSIPPWRYDAEVVAIAQK [M5E]	2.81
FMPADQFSIPPWRYDAEVVAIAQK [M5D]	1.48
FMPANQFSIPPWRYDAEVVAIAQK [M5N]	1.9
FMPAHQFSIPPWRYDAEVVAIAQK [M5H]	2.71
FMPASQFSIPPWRYDAEVVAIAQK [M5S]	2.24
FMPAGQFSIPPWRYDAEVVAIAQK [M5G]	3.64
FMPACQFSIPPWRYDAEVVAIAQK [M5C]	2.11
FMPAVQFSIPPWRYDAEVVAIAQK [M5V]	2.23
FMPAFQFSIPPWRYDAEVVAIAQK [M5F]	2.25
FMPAAQFSIPPWRYDAEVVAIAQK [M5A]	2.15
FMPAQQFSIPPWRYDAEVVAIAQK [M5Q]	2.24
FMPAPQFSIPPWRYDAEVVAIAQK [M5P]	2.6
FMPAYQFSIPPWRYDAEVVAIAQK [M5Y]	1.77
FMPALQFSIPPWRYDAEVVAIAQK [M5L]	2.25
FMPAKQFSIPPWRYDAEVVAIAQK [M5K]	1.95
FMPATQFSIPPWRYDAEVVAIAQK [M5T]	1.68
FWPAMQFSIPPWRYDAEVVAIAQK [M2W]	2.09
FYPAMQFSIPPWRYDAEVVAIAQK [M2Y]	1.79
FQPAMQFSIPPWRYDAEVVAIAQK [M2Q]	2.71
FAPAMQFSIPPWRYDAEVVAIAQK [M2A]	2.47
FNPAMQFSIPPWRYDAEVVAIAQK [M2N]	1.61
FEPAMQFSIPPWRYDAEVVAIAQK [M2E]	2.83

Variant	protein stability index
FHPAMQFSIPPWRYDAEVVAIAQK [M2H]	1.74
FKPAMQFSIPPWRYDAEVVAIAQK [M2K]	2.38
FDPAMQFSIPPWRYDAEVVAIAQK [M2D]	3.16
FRPAMQFSIPPWRYDAEVVAIAQK [M2R]	2.45
FCPAMQFSIPPWRYDAEVVAIAQK [M2C]	1.97
FLPAMQFSIPPWRYDAEVVAIAQK [M2L]	1.46
FSPAMQFSIPPWRYDAEVVAIAQK [M2S]	1.46
LMPAMQFSIPPWRYDAEVVAIAQK [F1L]	2.37
AMPAMQFSIPPWRYDAEVVAIAQK [F1A]	2.3
RMPAMQFSIPPWRYDAEVVAIAQK [F1R]	3.23
PMPAMQFSIPPWRYDAEVVAIAQK [F1P]	2.33
VMPAMQFSIPPWRYDAEVVAIAQK [F1V]	2.7
QMPAMQFSIPPWRYDAEVVAIAQK [F1Q]	3.2
DMPAMQFSIPPWRYDAEVVAIAQK [F1D]	3.37
NMPAMQFSIPPWRYDAEVVAIAQK [F1N]	2.61
IMPAMQFSIPPWRYDAEVVAIAQK [F1I]	2.52
CMPAMQFSIPPWRYDAEVVAIAQK [F1C]	1.97
GMPAMQFSIPPWRYDAEVVAIAQK [F1G]	2.04
SMPAMQFSIPPWRYDAEVVAIAQK [F1S]	1.84
YMPAMQFSIPPWRYDAEVVAIAQK [F1Y]	1.82
MMPAMQFSIPPWRYDAEVVAIAQK [F1M]	2.83
EMPAMQFSIPPWRYDAEVVAIAQK [F1E]	2.81
KMPAMQFSIPPWRYDAEVVAIAQK [F1K]	2.55
WMPAMQFSIPPWRYDAEVVAIAQK [F1W]	1.95

Variant	protein stability index
FMAAMQFSIPPWRYDAEVVAIAQK [P3A]	2.35
FMFAMQFSIPPWRYDAEVVAIAQK [P3F]	1.73
FMCAMQFSIPPWRYDAEVVAIAQK [P3C]	2.02
FMQAMQFSIPPWRYDAEVVAIAQK [P3Q]	1.28
FMVAMQFSIPPWRYDAEVVAIAQK [P3V]	2.33
FMKAMQFSIPPWRYDAEVVAIAQK [P3K]	2.58
FMIAMQFSIPPWRYDAEVVAIAQK [P3I]	2.58
FMLAMQFSIPPWRYDAEVVAIAQK [P3L]	2.22
FMMAMQFSIPPWRYDAEVVAIAQK [P3M]	4
FMNAMQFSIPPWRYDAEVVAIAQK [P3N]	2.39
FMPAMAFSIPPWRYDAEVVAIAQK [Q6A]	2.33
FMPAMIFSIPPWRYDAEVVAIAQK [Q6I]	1.34
FMPAMDFSIPPWRYDAEVVAIAQK [Q6D]	1.92
FMPAMHFSIPPWRYDAEVVAIAQK [Q6H]	1.86
FMPAMSFSIPPWRYDAEVVAIAQK [Q6S]	1.83
FMPAMFFSIPPWRYDAEVVAIAQK [Q6F]	1.4
FMPAMKFSIPPWRYDAEVVAIAQK [Q6K]	1.93
FMPAMGFSIPPWRYDAEVVAIAQK [Q6G]	1.83
FMPAMYFSIPPWRYDAEVVAIAQK [Q6Y]	1.34
FMPAMNFSIPPWRYDAEVVAIAQK [Q6N]	2.66
FMPAMRFSIPPWRYDAEVVAIAQK [Q6R]	1.82
FMPAMVFSIPPWRYDAEVVAIAQK [Q6V]	3.24
FMPAMTFSIPPWRYDAEVVAIAQK [Q6T]	1.55
FMPAMEFSIPPWRYDAEVVAIAQK [Q6E]	1.83

Variants of: B2
Test: as above
Details: c terminus: a fixed tail appended

Variant	protein stability index
CLLGLGSLVLILSLSYTKLIVGRI [V18K]	2.98
CLLGLGSLVLILSLSYTFLIVGRI [V18F]	1.87
CLLGLGSLVLILSLSYTMLIVGRI [V18M]	4.12
CLLGLGSLVLILSLSYTTLIVGRI [V18T]	2.93
CLLGLGSLVLILSLSYTHLIVGRI [V18H]	2.43
CLLGLGSLVLILSLSYTSLIVGRI [V18S]	3.07
CLLGLGSLVLILSLSYTLLIVGRI [V18L]	2.48
CLLGLGSLVLILSLCYTVLIVGRI [S15C]	4.02
CLLGLGSLVLILSLWYTVLIVGRI [S15W]	1.8
CLLGLGSLVLILSLNYTVLIVGRI [S15N]	3.57
CLLGLGSLVLILSLQYTVLIVGRI [S15Q]	1.91
CLLGLGSLVLILSLDYTVLIVGRI [S15D]	2.87
CLLGLGSLVLILSLIYTVLIVGRI [S15I]	3.21
CLLGLGSLVLILSLHYTVLIVGRI [S15H]	3.25
CLLGLGSLVLILDLSYTVLIVGRI [S13D]	2.82
CLLGLGSLVLILRLSYTVLIVGRI [S13R]	1.87
CLLGLGSLVLILLLSYTVLIVGRI [S13L]	2
CLLGLGSLVLILILSYTVLIVGRI [S13I]	3.33
CLLGLGSLVLILNLSYTVLIVGRI [S13N]	1.87
CLLGLGSLVLILFLSYTVLIVGRI [S13F]	3.31
CLLGLGSLVLILSLSYTVLIVGRV [I24V]	2.79
CLLGLGSLVLILSLSYTVLIVGRS [I24S]	4.47
CLLGLGSLVLILSLSYTVLIVGRH [I24H]	4.96

Variant	protein stability index
CLLGLGSLVLILSLSYTVLIVGRW [I24W]	3.02
CLLGLGSLVLILSLSYTVLIVGRF [I24F]	2.09
CLLGLGSLVLILSLSYTVLIVGRR [I24R]	4.47
CLLGLGSLVLILSLSYTVLIVGRL [I24L]	2.31
CLLGLGSLVLILSLSYTVLIVGRK [I24K]	2.5
CLLGLGSLVLILSLSPTVLIVGRI [Y16P]	3.53
CLLGLGSLVLILSLSMTVLIVGRI [Y16M]	3.02
CLLGLGSLVLILSLSWTVLIVGRI [Y16W]	1.91
CLLGLGSLVLILSLSYTVLQVGRI [I20Q]	3.17
CLLGLGSLVLILSLSYTVLNVGRI [I20N]	3.97
CLLGLGSLVLILSLSYTVLPVGRI [I20P]	2.85
CLLGLGSLVLILSLSYTVLMVGRI [I20M]	2.69
CLLGLGSLVLILSLSYTVLLVGRI [I20L]	3.62
CLLGLGSLVWILSLSYTVLIVGRI [L10W]	3.03
CLLGLGSLVLILSLSYTVVIVGRI [L19V]	3.24
CLLGLGSLVLILSLSYTVRIVGRI [L19R]	4.06
CLLGLGSLVLILSLSYTVHIVGRI [L19H]	3.95
CLLGLGSLVLILSLSYTVPIVGRI [L19P]	3.35
CLLGLGSLVLILSLSYTVWIVGRI [L19W]	1.77
CLLGLGSLVLILSLSYTVNIVGRI [L19N]	2.96
CLLGLGSLVLILSLSYTVLIVGAI [R23A]	1.68
CLLGLGSLVLILSLSYTVLIVGMI [R23M]	2.33
CLLGLGSLVLILSLSYTVLIVGQI [R23Q]	2.57

Variant	protein stability index
CLLGLGSLVLILSLSYTVLIVGKI [R23K]	3.91
CLLGLGSLVLILSLSYTVLIVGFI [R23F]	1.85
CLLGLGSLVLILSLSYTVLIVGII [R23I]	1.07
CLLGLGSLVLILSLSYTVLIVGTI [R23T]	2.41
CLLGLGSLVLILSLSYTVLIVGCI [R23C]	3.83
CLLGLGSLVLILSLSYTVLIVGEI [R23E]	3.06
CLLGLGSLVLILSLSYTVLIVGLI [R23L]	2.88
CLLGLGSLVLILSLSYTVLIVGYI [R23Y]	1.35
CLLGLGSLVLILSVSYTVLIVGRI [L14V]	3.61
CLLGLGSLVLILSFSYTVLIVGRI [L14F]	2.16
CLLGLGSLVLILSDSYTVLIVGRI [L14D]	2.03
CLLGLGSLVLILSHSYTVLIVGRI [L14H]	3.01
CLLGLGSLVLILSESYTVLIVGRI [L14E]	2.46
CLLGLGSLVLYLSLSYTVLIVGRI [I11Y]	1.36
CLLGLGSLVLDLSLSYTVLIVGRI [I11D]	3.63
CLLGLGSLVLWLSLSYTVLIVGRI [I11W]	1.42
CLLGLGSLVLELSLSYTVLIVGRI [I11E]	4.57
CLLGLGSLVLILSLSYTVLIIGRI [V21I]	3.74
CLLGLGSLVLILSLSYTVLIPGRI [V21P]	3.7
CLLGLGSLVLILSLSYTVLIFGRI [V21F]	4.2
CLLGLGSLVLILSLSYTVLICGRI [V21C]	3.06
CLLGLGSLVLILSLSYTVLIEGRI [V21E]	1.97
CLLGLGSLVLILSLSYTVLILGRI [V21L]	2.77

Variant	protein stability index
CLLGLGSLVLILSLSYTVLIYGRI [V21Y]	3.38
CLLGLGSLVLILSLSYFVLIVGRI [T17F]	3.38
CLLGLGSLVLILSLSYNVLIVGRI [T17N]	2.91
CLLGLGSLVLILSLSYEVLIVGRI [T17E]	3.32
CLLGLGSLVLILSLSYYVLIVGRI [T17Y]	2.3
CLLGLGSLVLILSLSYTVLIVHRI [G22H]	2.75
CLLGLGSLVLILSLSYTVLIVERI [G22E]	3.84
CLLGLGSLVLILSLSYTVLIVFRI [G22F]	3.4
CLLGLGSLVLILSLSYTVLIVQRI [G22Q]	3.23
CLLGLGSLVLILSLSYTVLIVVRI [G22V]	3.25
CLLGLGSLVLILSLSYTVLIVKRI [G22K]	2.08
CLLGLGSLVLILSLSYTVLIVTRI [G22T]	4.65
CLLGLGSLVLILSLSYTVLIVSRI [G22S]	2.04
CLLGLGSLVLINSLSYTVLIVGRI [L12N]	2.87
CLLGLGSLVLIESLSYTVLIVGRI [L12E]	3.91
CLLGLGSLVLITSLSYTVLIVGRI [L12T]	2.44
CLLGLGSLVLIYSLSYTVLIVGRI [L12Y]	3.84
CLLGLGSLVLISSLSYTVLIVGRI [L12S]	1.92
CLLGLGSLVLIPSLSYTVLIVGRI [L12P]	2.04
CLLGLGSLVLIVSLSYTVLIVGRI [L12V]	3.35
CLLGLGSLVLIISLSYTVLIVGRI [L12I]	1.58
CLLGLGSLVLIQSLSYTVLIVGRI [L12Q]	3.11
CLLGLGSLVLIWSLSYTVLIVGRI [L12W]	3.73
